Assay results: patent publication US20090061461A1 (published 2009)

molecular target: T1, deleted in colorectal cancer (DCC) (human, UniProt P43146 26-1447); experiment: co-immunoprecipitation (anti-HA) from transfected MCF-7 cells, Western blot with anti-DCC AF5
T1 construct: Endogenous DCC of MCF-7 cells, detected by Western blot in the anti-HA immunoprecipitate; also called DCC/Unc-40
Experimental: MCF-7 breast cancer cells were transfected by Lipofection with 5 μg of pcDNA3.1 containing HA-tagged mPR-wt, tagged mutant S56A, S180A, S56A/S180A, or tagged mutant S56A/C128S/[…]. After transfection of 2×10⁶ cells they were cultured in RPMI-Medium with 5% FCS. For IP the cells were trypsinized, counted and cell pellets were snap frozen and stored at −80° C.
Beads were separated by centrifugation and stored at −80° C. […] Incubation was performed for 16 h at 4° C. in a rotating tube. Then, beads were separated by centrifugation and washed twice with ice cold lysis buffer.
For PAGE gel-loading buffer/mercatoethanol was added to beads and the final supernatant, heated to 95° C. for 5 min and loaded on a 10% polyacrylamide gel. After separation of the proteins, western blot was performed onto nitrocellulose membrane. Transfer was controlled by Ponceau-red staining visualizing protein bands. After destaining the membranes were blocked for 16 h at 4° C. with 5% milkpowder/0.05% Tween. The next day membranes were incubated with mouse monoclonal anti-DCC antibody (1:20) (Biozol/Abcam) for 2 h at RT followed by biotinylated anti-mouse IgG antibody (Vecta Stain). For detection, membranes were incubated with streptavidin/HRP complex (DAKO) for 2 h at RT followed by enhanced chemiluminescence (ECL) treatment and measurement of chemiluminescence using a Lumiimager (Roche). As a loading control, membranes were incubated with rabbit polyclonal Actin I-19 antibody (Santa Cruz).

T1 sequence (P43146 26-1447 limits assumed): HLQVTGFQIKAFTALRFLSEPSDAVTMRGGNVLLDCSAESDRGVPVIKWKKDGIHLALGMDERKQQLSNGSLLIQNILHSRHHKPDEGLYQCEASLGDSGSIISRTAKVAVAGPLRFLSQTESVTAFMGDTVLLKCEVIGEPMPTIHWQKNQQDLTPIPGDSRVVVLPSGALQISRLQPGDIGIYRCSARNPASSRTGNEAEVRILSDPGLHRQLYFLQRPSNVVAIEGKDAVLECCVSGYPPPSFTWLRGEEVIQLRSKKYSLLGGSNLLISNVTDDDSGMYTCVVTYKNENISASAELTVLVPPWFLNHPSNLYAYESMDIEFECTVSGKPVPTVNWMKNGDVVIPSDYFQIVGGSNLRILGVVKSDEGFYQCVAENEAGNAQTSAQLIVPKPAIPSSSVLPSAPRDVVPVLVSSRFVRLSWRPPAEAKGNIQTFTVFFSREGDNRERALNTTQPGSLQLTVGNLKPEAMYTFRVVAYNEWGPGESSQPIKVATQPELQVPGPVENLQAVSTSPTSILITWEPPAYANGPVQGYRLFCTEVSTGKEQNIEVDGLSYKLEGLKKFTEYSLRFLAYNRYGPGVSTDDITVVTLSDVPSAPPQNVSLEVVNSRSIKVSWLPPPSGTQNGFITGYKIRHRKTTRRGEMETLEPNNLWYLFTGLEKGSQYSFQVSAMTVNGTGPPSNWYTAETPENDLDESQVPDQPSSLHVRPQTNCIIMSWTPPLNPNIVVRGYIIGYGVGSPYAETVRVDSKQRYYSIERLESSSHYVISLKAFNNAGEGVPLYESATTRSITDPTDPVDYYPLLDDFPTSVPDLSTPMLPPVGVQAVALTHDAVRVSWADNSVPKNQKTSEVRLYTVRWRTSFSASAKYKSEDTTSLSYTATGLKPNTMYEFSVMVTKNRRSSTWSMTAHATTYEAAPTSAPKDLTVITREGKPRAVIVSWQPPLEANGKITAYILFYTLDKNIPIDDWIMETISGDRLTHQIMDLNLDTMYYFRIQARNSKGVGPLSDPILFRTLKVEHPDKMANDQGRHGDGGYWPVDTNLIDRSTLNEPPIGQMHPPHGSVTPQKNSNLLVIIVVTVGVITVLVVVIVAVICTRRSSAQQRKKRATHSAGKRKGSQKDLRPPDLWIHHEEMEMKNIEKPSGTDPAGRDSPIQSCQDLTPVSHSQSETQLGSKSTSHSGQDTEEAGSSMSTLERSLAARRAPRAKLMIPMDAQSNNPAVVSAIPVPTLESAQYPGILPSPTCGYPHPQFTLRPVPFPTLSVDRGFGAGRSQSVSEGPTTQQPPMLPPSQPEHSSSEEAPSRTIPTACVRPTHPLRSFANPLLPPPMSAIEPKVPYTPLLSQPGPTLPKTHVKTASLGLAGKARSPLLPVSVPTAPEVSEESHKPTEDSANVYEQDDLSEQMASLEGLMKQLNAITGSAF

Binder | binding result
HA-tagged mPR mutant S56A/S180A (receptor, also called mPR-3HA S56A/S180A; not shown: C-terminal 3xHA tag) not shown | no binding
HA-tagged mPR mutant S180A (receptor, also called mPR-3HA S180A; not shown: C-terminal 3xHA tag) not shown | no binding
HA-tagged mPR mutant S56A (receptor, also called mPR-3HA S56A; not shown: C-terminal 3xHA tag) not shown | no binding
HA-tagged mPR mutant S56A/C128S/S180A (receptor, not shown: C-terminal 3xHA tag) not shown | no binding
